Experimental data: the supplement of paper PMC9732359
± gives the uncertainty stated by the source.

Test: protein stability index of a GFP-peptide fusion (yeast GPS) (PSI 1-4); higher = more stable; sorted into four equal gates, so the index is relative within each strain
Settings: pdr5∆
Procedure, shortened: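 Mid-log yeast cultures in leucine-free medium, carrying a pooled plasmid library, were sorted into four equal gates by their GFP/Cherry fluorescence ratio. Each plasmid expressed Cherry along with GFP fused upstream of a tiled 17-residue yeast protein peptide. Plasmids recovered from each gate were PCR-amplified and Illumina-sequenced, with reads assigned to strains by barcodes. The protein stability index was obtained by summing each gate's read frequency weighted by its gate number.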

First: SVKESTGMSSMSPFLRK [SRB4]
Second: SVKFTHIAHTLPEKVNF [SSN2]
The protein stability index of the first is higher: 2.6 ± 0.23 for the first, 2.28 ± 0.042 for the second.

SVKSARTSTRGRGRGRG [SNF2] showed a protein stability index of 3.35 ± 0.064.

Same assay, conditions: san1∆

First: SLKQYAGNLITTPEINN [SRP68]
Second: SLLKTKLKQQSSTDIPS [RRI1]
The protein stability index of the first is higher: 2.92 ± 0.076 for the first, 2.21 ± 0.082 for the second.

SLLLAHFFSKSCSFFAK [NUT1] and SLLNLLNISPFTFGLTV [RPP0] are within error of each other in protein stability index: 1.61 ± 0.074 for the first, 1.56 ± 0.078 for the second.

Compared with SLLPYYHLTKAVKLGDL [RPN3], SLNYKFTTNKSKDVSRL [SRP21] is higher in protein stability index: 1.72 ± 0.073 for the first, 3.08 ± 0.081 for the second.

Compared with SLPFLLRHMPLASIPDI [SSN2], SLPSKLTKYKEMERIVK [SRP68] is higher in protein stability index: 1.5 ± 0.072 for the first, 2.42 ± 0.046 for the second.

SLQDNSAAINNEDARAI [RPN4] and SLRETNTTDPLGHTKAA [SIR2] are within error of each other in protein stability index: 2.94 ± 0.055 for the first, 2.85 ± 0.13 for the second.

First: SLSEGCDILVATPGRLI [PRP28]
Second: SLTEATKTNVDNNSKAE [YLR335W/NUP2]
The protein stability index of the first is higher: 3.25 ± 0.047 for the first, 3.14 ± 0.062 for the second.

Compared with SLTKDKSIRKDTVEEKK [SIR4], SLVIIILVKRYSIEMKP [ECM29] is lower in protein stability index: 3.1 ± 0.056 for the first, 1.59 ± 0.069 for the second.

Compared with SMDTKKKHKQKKVLEID [BRN1], SMFGSDQKTGRAKSSSH [RPN4] is lower in protein stability index: 3.32 ± 0.039 for the first, 3.14 ± 0.071 for the second.

Going from SMGTMICGYTRKEGPTI [PRE2] to SMPLEQLIPIILRQRGP [SRB4], the protein stability index falls from 3.33 ± 0.039 to 2.32 ± 0.083.

Going from SNAAGADDAISMHLLKD [SRB8] to SNAVTQTNIWEENWDDV [SEM1], the protein stability index rises from 3.07 ± 0.099 to 3.32 ± 0.084.

Compared with SNDLCSQIFDQLKDMQT [SRB8], SNDNLDLISEILKWVQW [MED1] is higher in protein stability index: 2.47 ± 0.049 for the first, 2.9 ± 0.051 for the second.

First: SNEICDLAYQYVRALEL [SRB2]
Second: SNEIKVTNDLDTSAEKD [SIR4]
The protein stability index of the first is lower: 2.88 ± 0.046 for the first, 3.26 ± 0.055 for the second.

Going from SNHNNLNLNNSELQPQN [SNF2] to SNIDYQTLLANSDHAKF [SNF2], the protein stability index falls from 2.97 ± 0.051 to 2.32 ± 0.11.

Compared with SNIEQTESLRVENSVLI [YIL149C/MLP2], SNIIHDESDTISFRSNL [SNF6] is lower in protein stability index: 3.08 ± 0.049 for the first, 2.85 ± 0.098 for the second.

First: SNKPIFLFAPELGAINL [SWI1]
Second: SNPQHIIQPFLDNSKMD [RGR1]
The protein stability index of the first is lower: 2.08 ± 0.089 for the first, 2.53 ± 0.077 for the second.

Compared with SNPSGNYTGWKAISVGA [PRE9], SNSAGTSLFGSSSAQQT [YJL041W/NSP1] is higher in protein stability index: 2.54 ± 0.086 for the first, 3.12 ± 0.073 for the second.

First: SNSSELEPDYQAPFSTS [MED1]
Second: SNTRTMTYKNKLTVCFD [MED2]
The protein stability index of the first is higher: 2.82 ± 0.073 for the first, 1.46 ± 0.24 for the second.

Going from SPDQMRNLQMGLRNQNM [GRR1] to SPEEQRSLLQEAIETCK [GAL11], the protein stability index falls from 3.22 ± 0.088 to 2.63 ± 0.18.

Going from SPFGGSSHAKGIVLEKL [RPS23A] to SPIPFPPLTYKNDTKIL [PRP8], the protein stability index falls from 3.12 ± 0.067 to 2.73 ± 0.059.

Compared with SPKPYAVKYGLNHVVAL [RPL8A], SPLDIYSDEASAQKKRF [RPS2] is higher in protein stability index: 2.44 ± 0.071 for the first, 3.03 ± 0.07 for the second.

Compared with SPVELSRMFEEVSGSIQ [SMC1], SPVQIAFNRFMAESLVD [SSN8] is lower in protein stability index: 2.38 ± 0.065 for the first, 1.63 ± 0.11 for the second.

Compared with SQDATKVDATPEESKPI [YLR335W/NUP2], SQIRLYAKFKRNTMMIQ [RGR1] is lower in protein stability index: 2.81 ± 0.08 for the first, 2.14 ± 0.11 for the second.

Compared with SQKQTLIKKPLTVFYAI [SSN3], SQPTAAGGPDMTTPQNI [DSN1] is lower in protein stability index: 2.12 ± 0.085 for the first, 1.89 ± 0.1 for the second.

First: SQSKMMSSQISSLIPHC [MTR3]
Second: SQSLGVSNKFEKIFHYG [PUP3]
The protein stability index of the first is lower: 2.21 ± 0.048 for the first, 2.95 ± 0.13 for the second.

First: SQTPSFNTNSSFTPSTV [YOR098C/NUP1]
Second: SQVVWIRRLRVLRRLLA [RPL19A]
The protein stability index of the first is higher: 2.52 ± 0.033 for the first, 1.44 ± 0.12 for the second.

First: SRAQILQIHSRKMTTDD [RPT5]
Second: SRDELIRLAKTLKKNNV [RPN10]
The protein stability index of the first is higher: 2.92 ± 0.068 for the first, 2.42 ± 0.17 for the second.

SRDLWCFSINDDPVPTP [SSN2] and SRENNSEYMVFGKLAFP [YJL039C/NUP192] are within error of each other in protein stability index: 2.94 ± 0.081 for the first, 2.97 ± 0.069 for the second.

Compared with SREVLRYEEFADKVKLG [RPC40], SRFTNVSVIAPESQGQH [YMR153W/NUP53] is lower in protein stability index: 3.17 ± 0.12 for the first, 2.6 ± 0.12 for the second.

First: SRKRGGENVFLKRISDG [SIR3]
Second: SRLTLLLRALKTNEESA [PRP8]
The protein stability index of the first is higher: 3.07 ± 0.052 for the first, 1.84 ± 0.09 for the second.

Compared with SRMFEEVSGSIQYKKEY [SMC1], SRNFSTRDEETTKLAFL [SIR4] is higher in protein stability index: 2.37 ± 0.075 for the first, 3.03 ± 0.04 for the second.

SRRPEPKKFGGKGARSR [RPS16A] and SRRTVNKEMETQRIMTN [YLR018C/POM34] are within error of each other in protein stability index: 3.25 ± 0.077 for the first, 3.22 ± 0.26 for the second.

Going from SRVINVVRAASSLASQD [RRP6] to SSDVDMDDEEWRSKRIE [RPC53], the protein stability index rises from 2.57 ± 0.18 to 3.42 ± 0.053.

Going from SSEQDYSTLKELLEYSD [YCG1] to SSETDDDHSQVINPQQL [DSN1], the protein stability index falls from 3.15 ± 0.068 to 2.99 ± 0.044.

First: SSFGSESLTFNEFQLQW [SWI1]
Second: SSFNKRSKFLSTVAKFL [IRR1]
The protein stability index of the first is higher: 2.56 ± 0.054 for the first, 2.08 ± 0.067 for the second.

SSGFNEDIVGALRRRVG [REC8] and SSHQRVFKLSTNLISKI [SWP82] are within error of each other in protein stability index: 1.44 ± 0.26 for the first, 1.52 ± 0.11 for the second.

Going from SSLEARYFFYLSKINAI [RPN3] to SSLSAIIVFGYPESISN [YDL088C/ASM4], the protein stability index rises from 1.95 ± 0.1 to 2.16 ± 0.086.

SSLYEASLNALKESIKN [RPN1] and SSNTNNNTNNNNTNTGA [SWI1] are within error of each other in protein stability index: 3.38 ± 0.085 for the first, 3.29 ± 0.057 for the second.

SSPDTMKLTDLLSLINS [SNF12] and SSPEEPFMSYSPQLTAI [SNF12] are within error of each other in protein stability index: 2.81 ± 0.047 for the first, 2.7 ± 0.066 for the second.

Compared with SSSMDMQANTNALRRNL [SSN3], SSTGVPESIDTILSSKL [SRB2] is lower in protein stability index: 3.13 ± 0.046 for the first, 2.93 ± 0.075 for the second.

Compared with SSTKDYLTPPHECRLRD [RET1], SSTYYNLDYLFELIELV [NUT1] is lower in protein stability index: 3.2 ± 0.18 for the first, 2.78 ± 0.15 for the second.

Going from SSVFLPSRKDCMEVASA [BRR2] to SSVKTCFKPMSLTSKRL [RIP1], the protein stability index falls from 3.33 ± 0.066 to 2.85 ± 0.047.

Compared with SSYDLLFNESFIMASVG [SRP72], STDELVGSPLTVSILQE [POP8] is lower in protein stability index: 2.76 ± 0.1 for the first, 2 ± 0.1 for the second.

Going from STDKLVQCHGSFATATC [SIR2] to STFENRNVGKTLVNKST [RPS1A], the protein stability index rises from 2.48 ± 0.063 to 3.09 ± 0.055.

Compared with STFREWKNLVLKLSQAF [YJR042W/NUP85], STLEPTLRKELEQIQVQ [YIL149C/MLP2] is higher in protein stability index: 2.64 ± 0.068 for the first, 2.89 ± 0.062 for the second.

Compared with STLGDCLGIKDEEMLTS [GAL11], STMKENKDLSELVIRLE [YIL149C/MLP2] is higher in protein stability index: 2.81 ± 0.062 for the first, 3.16 ± 0.065 for the second.

STNESNKSISDEITEDM [SSN2] and STNGLGMCQLYFWHKIW [SNU114] are within error of each other in protein stability index: 2.8 ± 0.05 for the first, 2.56 ± 0.21 for the second.

Going from STPYLEILVEESGLRPV [PCI8] to STSYAIKKKDELERVAK [RPS5], the protein stability index rises from 1.54 ± 0.19 to 3.33 ± 0.061.

STTMDGANDLGFTASVS [MED1] and STTTSVNGSTTAGVGST [SIN4] are the same in protein stability index: 3.07 ± 0.072 for the first, 3.07 ± 0.041 for the second.

First: STVSGELNDNPAWFNNP [YMR153W/NUP53]
Second: STYRLEDVLSSFYRVEK [SSN2]
The protein stability index of the first is higher: 3.29 ± 0.044 for the first, 1.87 ± 0.1 for the second.

Going from SVAPTKQREIVKAFLSI [NUT1] to SVDLEKLAFGLTKLNED [TAF14], the protein stability index rises from 2.41 ± 0.13 to 3.6 ± 0.092.

SVKESTGMSSMSPFLRK [SRB4] gave a protein stability index of 2.1 ± 0.25.
